We go through 1 molecule from patent US20260104381, “ELECTRODEPOSITED METAL MODIFIED LASER SCRIBED GRAPHENE ELECTRODE AND METHOD” (KING ABDULLAH UNIVERSITY OF SCIENCE AND TECHNOLOGY, published 2026).

The series has as its target HER2 (human epidermal growth factor receptor 2) (Homo sapiens, UniProt P04626 P04626:23-652). Nature of the series: electrochemical SWV aptasensor; 0.1-200 ng/mL HER2 in 10 mM PBS pH 7.4, 1 h; MCH/BSA blocked; LOD 0.008 ng/mL; also detected in spiked undiluted human serum; protein source not stated. To be noted: label: immobilized via thiol on gold nanostructured laser-scribed graphene electrode. As to the method: The concentrated Mercaptohexanol (MCH) solution was first prepared in ultrapure water and then further diluted in 10 mM PBS (pH 7.4). 4 μM of DNA aptamer 410 was mixed with 20 μM of MCH 412 prepared with 10 mM PBS (pH 7.4) to obtain a homogenized solution. As the next step, 6 μL from this mixture was placed in step 402 onto the LSG-AuNS modified working electrode 104 and incubated for 16 h, as shown in FIG. 4B. The MCH 412 covers a first part of the surface of the nanostructure 110 while the aptamer 410 covers a second part of the surface of the nanostructure 110. However, a third part of the surface of the nanostructure 110 is not covered by either of the MCH or the aptamer. The LSG-AuNS electrode surface was cleaned with 10 mM PBS (pH 7.4) to remove the excess of aptamer molecules 410 and MCH 412. The aptasensor was incubated in step 405 in 0.1 mg/mL of BSA solution 414 in 10 mM PBS (pH 7.4) for 45 min to cover a third part of the surface of the nanostructure 110, to reduce non-specific adsorption, as illustrated in FIG. 4C. In one application, the sum of the surfaces of the first to third parts covers the entire surface of the nanostructure 110. However, in another application, the sum of the first to third parts cover less than the entire surface of the nanostructure 110. Finally, the aptamer modified electrode 104 was washed with 10 mM PBS (pH 7.4) for at least five times. […]

B1: thiol-modified anti-Her-2 DNA aptamer (APT) (ssDNA)
DNA: AACCGCCCAAATCCCTAAGAGTCTGCACTTGTCATTTTGTATATGTATTTGGTTTTTGGCTCTCACAGACACACTACACACGCACA
modifications: 5'-ThiC6 (thiol C6 linker)
As to B1, the binding result was “binds”.
